Results published in patent US20230348852A1, “METHODS AND COMPOSITIONS FOR OCULAR CELL THERAPY” (NOVARTIS AG, priority 2020, published 2023).

Legend:
B2M [1] = assay: sgRNA screening for B2M knockout in LSCs (nucleofection, FACS); format: cell-based, human; conditions: Cas9 protein SEQ ID NO: 106, LSCs at passage 3, FACS after around 3 days
Description: Cells were cultured under these conditions for 24-48 hours at 37° C. in 5% CO2.
LSCs were nuclofected with selected gRNAs (Table 6) followed by FACS analysis / MACS separation.
After scraping the cells, the reaction was stopped by using cell culture medium containing 10% Serum and transferred to a falcon tube. After counting cells using Vi-cell 300′000 cells were prepared per reaction by transferring 300′000 cells in single tubes and centrifuged at 1000 rpm for 5 min. The supernatant was aspirated using manually pipetting to avoid cell loss and the cells were resuspended in the Stem cell nucleofector solution II (Lonza, Cat #VPH-5022). Resuspend cells in nucleofector solution immediately before adding the Cas9 RNP:sgRNA mixture. To obtain the nucleofection mixture, 5 µg high concentrated (≥5 µg/µl) Cas9 protein of SEQ ID NO: 106 (volume = 0.78 µl) was mixed with 19.5 µg sgRNA of Table 6 (volume = 12.2 µl) and incubated for 20 min at room temperature. […] The Cas9 protein-guideRNA complex was added to the cell suspension and transferred to the electroporation cuvette immediately. Cells were transfected using the nucelofector device (Lonza, Amaxa Nucleofector II) and program A023. After nucleofection cells were transferred from cuvette to one well of a 24 well synthemax coated plate containing pre-warmed LSC medium including 3 µM LATS compound and 10 µM Rock inhibitor Y-27632 (Nature 1997, vol. 389, pp. 990-994). Incubate LSCs in a 5% CO2 incubator for around 3 days until cells are 90% confluent.
LSCs were treated with TryLE®Express Enzym (ThermoFisher, Cat #12605010) for 15 minutes in 5% CO2 at 37° C. After scraping the cells, the reaction was stopped by using cell culture medium containing 10% Serum and transferred to a falcon tube for a centrifugation step (1000 rpm, 5 minutes). After aspirating the medium cells were resuspended in 200 µl FACS buffer (PBS/10%FBS).
To analyze the expression of B2M and HLA-ABC, 5 µl APC mouse anti-human β2-microglobulin antibody (Biolegend, Cat#316312) and 20 µl PE mouse anti-human HLA-ABC antibody (BD Bioscience, Cat # 560168) were added to the cell suspension and incubated for 30 minutes on ice.
Cells were washed 3 times after antibody labelling with FACS buffer and resuspended in 200 µl in FACS buffer (depending on the cell number).
FACS data were analyzed using BD FACSDiva software and FlowJo software.

B2M [2] = assay: Targeted PCR and NGS (amplicon sequencing) of on-target and off-target sites in genome-edited LSCs; format: cell-based, human; conditions: for Number of sites positive for off-target activity in LSCs: of the potential off-target loci sequenced; for B2M purified rhAmpSeq indel: purified (B2M negative) LSC populations
Description: Potential CRISPR/Cas9-mediated cutting sites identified above were evaluated using targeted PCR and NGS in genome-edited expanded LSCs.
Selected sgRNAs (SEQ ID NO: 120, 162, 166, 167, 171, and 175) were further analyzed by amplicon sequencing in edited and non-edited cells. Primers flanking the potential off-target sites for each guide were used to detect indels by NGS analysis in edited LSCs and non-edited peripheral blood mononuclear cells. Sites that had either (1) a difference in mean indel percentage between edited and unedited cells greater than 0.5%; or (2) a p value less than 0.05 between edited and unedited indel were further analyzed. NGS sequence reads for such sites were assessed for characteristic indel patterns near the putative Cas9 cut site. Based on the results, we could assess the specificity of gRNAs and their suitability for therapeutic applications.

[3] = tested on: genomic DNA purified from male human peripheral blood mononuclear cells; assay: Biochemical assay for potential off-target genomic sites cleaved by Cas9 and B2M guides; conditions: number of potential off-target sites, guide concentration 64 nM
Description: A biochemical method (See, e.g., Cameron et al., Nature Methods. 6, 600-606; 2017) was used to determine potential off-target genomic sites cleaved by Cas9 and selected B2M guides. Guides showing B2M indel activity were tested for potential off-target genomic cleavage sites with this assay. […] The number of potential off-target sites detected using a guide concentration of 64 nM in the biochemical assay are shown in Table 10. As a result of this analysis, several gRNAs were selected for analysis of potential off-target activity in limbal stem cells.

[4] = tested on: beta-2-microglobulin gene; assay: CRISPR/Cas9-mediated deletion of B2M in LSCs (nucleofection, FACS); format: cell-based, human; conditions: nucleofection with Cas9 protein SEQ ID NO: 107, LSCs at passage 0, FACS
Description: LSCs at passage 0 were trypsinized with TryLE®Express Enzym (ThermoFisher, Cat #12605010) for 15 min in 5%CO2 at 37° C. After scraping the cells, the reaction was stopped by using cell culture medium containing 10% Serum and transferred to a falcon tube. After counting cells using Vi-cell 200′000 cells were prepared per reaction by transferring 200′000 cells in single tubes and centrifuged at 1000 rpm for 5 min.
The supernatant was aspirated using manually pipetting to avoid cell loss and the cells were resuspended in the Stem cell nucleofector solution II (Lonza, Cat #VPH-5022). Resuspend cells in nucleofector solution immediately before adding the Cas9 protein:sgRNA mixture. A stock of 100 µM (3.23 µg/µl) was prepared resuspending 5.1 nanomoles of single-guideRNA (sgRNA) in 51 µl 10 mM Tris buffer pH7.4. […]
In order to prevent cells sticking to the wall, collection tubes were filled with FACS buffer for 30 minutes before the sort and aspirated before adding the collection medium. […] FACS data were analyzed using BD FACSDiva software and FlowJo software.

B1: 1-CR004366: gRNA targeting human B2M; targeting domain SEQ ID NO: 108; sgRNA SEQ ID NO: 120; from Dharmacon (nucleic acid)
guide: GAGUAGCGCGAGCACAGCUAGUUUUAGAGCUAGAAAUAGCAAGUUAAAAUAAGGCUAGUCCGUUAUCAACUUGAAAAAGUGGCACCGAGUCGGUGCUUUU
modifications: listed as RNA, chemistry not given here
notes: gRNA targeting human B2M; from Dharmacon
B2M knockout efficiency in LSCs after nucleofection (B2M [1]): 55% | validated indels for off-target activity in LSCs (B2M [2]; amplicon sequencing of potential off-target loci): zero | Number of sites positive for off-target activity in LSCs (B2M [2]): 0 of 64 | Number of sites positive for off-target activity in LSCs (B2M [2]; listed as SEQ ID NO: 120): no predicted sites tested positive for off-target activity | B2M purified rhAmpSeq indel (B2M [2]): 99.60±0.44% | B2M purified rhAmpSeq indel (B2M [2]; listed as SEQ ID NO: 120): ~ 99% | off-target Site_ Count [3]: 69 | LSCs not expressing B2M and HLA I (HLA A, B and C) on cell surface [4]: about 70%
